Laboratory results reported in PMC5526835.

Target: PCM1 (endogenous) [human (endogenous in HEK293A)]
Assay: GFP-TRAP pull-down and immunoblot, quantified
Details: read off a plot, scale: relative protein level normalized to ponceau

GFP-GABARAP mutant G116A [human] / PCM1 (endogenous) [human (endogenous in HEK293A)] chain 1 G116A
response (EBSS (ES) for 2 hr): 0.85 | response (EBSS + BAFA (EB) for 2 hr): 1.2 | response (full medium (FM)): 1
